# Data published in paper PMC9843055, “Karyopherin α deficiency contributes to human preimplantation embryo arrest” (The Journal of Clinical Investigation, 2023).
# B1: GST-SV40TNLS-GFP (other)
# chain: PKKKRKV
# notes: nuclear localization signal of the SV40 large T antigen (SV40TNLS), between GST and GFP; source: E. coli BL21 (DE3) plysS, purified (glutathione Sepharose); not shown: GST, N-terminal, kept; GFP, C-terminal, kept
# Biological target: T1, human KPNA7 (karyopherin subunit α7), WT, purified, GST cleaved (human, UniProt A9QM74 1-516)
# T1 construct: karyopherin subunit α7 (importin α8), human; also called hKPNA7; importin α8; source: E. coli BL21 (DE3) plysS, purified (glutathione Sepharose, GST tag cut with PreScission protease)
# T1 sequence (A9QM74 whole entry): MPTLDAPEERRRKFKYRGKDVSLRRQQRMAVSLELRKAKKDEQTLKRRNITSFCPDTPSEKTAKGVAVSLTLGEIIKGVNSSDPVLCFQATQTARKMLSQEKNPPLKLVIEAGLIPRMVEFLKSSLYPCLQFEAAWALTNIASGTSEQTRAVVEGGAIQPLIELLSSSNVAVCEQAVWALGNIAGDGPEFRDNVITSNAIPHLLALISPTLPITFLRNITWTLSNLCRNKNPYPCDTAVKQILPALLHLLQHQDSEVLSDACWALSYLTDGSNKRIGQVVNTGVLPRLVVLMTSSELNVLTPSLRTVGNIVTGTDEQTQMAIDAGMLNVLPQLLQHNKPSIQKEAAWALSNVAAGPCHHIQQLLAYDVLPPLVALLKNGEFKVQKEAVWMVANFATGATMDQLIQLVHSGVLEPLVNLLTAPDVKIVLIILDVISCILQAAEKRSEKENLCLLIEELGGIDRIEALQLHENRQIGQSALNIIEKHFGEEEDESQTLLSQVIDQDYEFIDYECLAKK
# Experiment: pull-down; GST-SV40TNLS-GFP or GST-RSL1D1-GFP held on GST beads (4°C, 1 h, transport buffer with 0.1% Triton X-100), then cleaved WT or mutant KPNA7 at 4°C for 2 h; Western blotting
# Details: both partners purified
binder,measurement,value
B1,binding result,binds
